From PMC4601027, “Structural Analysis of the Pin1-CPEB1 interaction and its potential role in CPEB1 degradation” (Scientific Reports, 2015)
Where “and” joins values, the source holds several entries; their conditions need not be identical. Equal entries are not always repeated. Non-standard residues stand in square brackets, D forms with d. No end group written: not given here. pS = N[C@@H](COP(=O)(O)O)C(=O)O

How the values were obtained:
full-length Pin1 [1] = biological target: T1, full-length Pin1 (UniProt Q13526 1-163); assay: native MS; travelling wave ion mobility mass spectrometry (IM-MS), nano-electrospray; unbound full-length Pin1 or Pin1 with CPEB1 pS210, 30-50 μM, 20-50 mM NH4OAc pH 7.2; settings: both partners purified
T1 construct: Pin1 (peptidyl-prolyl cis/trans isomerase), full length; WW domain, linker and PPIase (catalytic) domain; Uniprot Q13526 is printed for the WW construct; 15N-labelled for NMR; The vector has a TEV cleavage site; Monomer by IM-MS; also called Pin1 full-length; full-length Pin1 protein; source: recombinant; clone from Addgene (Dustin Maly's Lab) in pMCSG7

full-length Pin1 [2] = biological target: T1, full-length Pin1; assay: ITC; nano ITC, 12 °C or 25 °C; 20 mM Tris-HCl pH 7.0, 130 mM NaCl; 10- to 15-fold concentrated peptide injected (16 x 3 μL) into 190 μL of protein at 150-200 μM; single-site fit, except Pin1 full-length with pS210; settings: both partners purified

T1 sequence (Q13526 whole entry, the tested form may be a part): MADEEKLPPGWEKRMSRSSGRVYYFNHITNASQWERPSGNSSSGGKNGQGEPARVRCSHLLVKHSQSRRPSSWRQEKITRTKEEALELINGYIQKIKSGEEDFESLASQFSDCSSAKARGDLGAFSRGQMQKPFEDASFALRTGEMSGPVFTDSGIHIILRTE

- stoichiometry N (full-length Pin1 [1]): 1 ligands per Pin1 and 2 ligands per Pin1
- stoichiometry N (full-length Pin1 [2]): 0.85
Binder: RI[pS]PPLPF-NH2 [CPEB1 pS210 peptide]
